Results taken from US20250313631A1 (HUMMINGBIRD BIOSCIENCE PTE, published 2025).

T1: human B7H3 (human, UniProt Q5ZPR3 29-461, limits assumed)
T1 construct: also called CD276
T1 sequence (looked up): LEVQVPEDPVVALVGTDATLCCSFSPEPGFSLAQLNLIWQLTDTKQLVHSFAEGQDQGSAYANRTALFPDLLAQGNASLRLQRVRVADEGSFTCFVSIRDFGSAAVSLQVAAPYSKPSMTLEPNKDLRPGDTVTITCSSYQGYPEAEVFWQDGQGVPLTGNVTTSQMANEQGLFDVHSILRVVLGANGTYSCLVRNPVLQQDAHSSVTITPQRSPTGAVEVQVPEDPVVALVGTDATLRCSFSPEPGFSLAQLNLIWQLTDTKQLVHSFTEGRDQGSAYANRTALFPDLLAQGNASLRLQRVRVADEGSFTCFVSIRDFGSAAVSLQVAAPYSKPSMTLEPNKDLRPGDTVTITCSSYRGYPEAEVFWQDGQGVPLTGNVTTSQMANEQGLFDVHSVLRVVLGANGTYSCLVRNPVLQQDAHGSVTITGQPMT

T2: recombinant mouse VISTA (His-tagged) (mouse, UniProt Q9D659 33-191)
T2 construct: also called murine VISTA; mVISTA
T2 sequence (looked up): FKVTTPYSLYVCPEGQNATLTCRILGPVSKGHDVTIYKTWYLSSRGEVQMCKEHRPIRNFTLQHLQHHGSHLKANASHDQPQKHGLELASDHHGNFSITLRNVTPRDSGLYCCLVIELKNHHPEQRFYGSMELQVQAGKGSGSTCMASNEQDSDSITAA

T3: mouse VISTA expressed on cells (mouse, UniProt Q9D659 33-308)
T3 construct: whole, on cells; also called murine VISTA on transfected cells; VISTA on mouse CD11b+ myeloid cells
T3 sequence (looked up): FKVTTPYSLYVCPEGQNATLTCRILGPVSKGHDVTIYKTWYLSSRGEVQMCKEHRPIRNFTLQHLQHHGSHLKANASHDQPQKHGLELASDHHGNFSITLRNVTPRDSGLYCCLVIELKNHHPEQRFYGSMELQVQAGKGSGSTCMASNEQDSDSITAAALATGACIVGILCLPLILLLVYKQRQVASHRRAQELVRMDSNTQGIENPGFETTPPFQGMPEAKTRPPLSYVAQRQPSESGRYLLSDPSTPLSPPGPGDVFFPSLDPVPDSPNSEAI

T4: rat VISTA expressed on cells (rat, UniProt A0ABK0L5H3 33-310)
T4 construct: whole, on cells; also called rat VISTA on HEK293T cells; VISTA on rat CD11b+ myeloid cells
T4 sequence: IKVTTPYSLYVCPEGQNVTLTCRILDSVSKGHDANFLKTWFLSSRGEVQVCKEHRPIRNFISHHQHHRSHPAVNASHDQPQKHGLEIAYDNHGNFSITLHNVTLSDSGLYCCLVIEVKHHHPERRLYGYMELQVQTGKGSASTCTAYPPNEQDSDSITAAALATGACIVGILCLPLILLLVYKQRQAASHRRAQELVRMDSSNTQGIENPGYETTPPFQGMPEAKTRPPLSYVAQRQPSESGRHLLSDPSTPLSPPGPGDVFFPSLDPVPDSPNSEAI

B1: anti-VISTA clone 4M2-C12 IgG1 (antibody)
heavy: not shown
light: DIVITQTPAILSTSPGEKVTMTCRASSSVGYIHWYQQKPGSSPKPWIYATSNLASGVPARFSGSGSGTSNSLTITRVEAEDAATYYCQQWSSYPPITFGGGTKLEVKRTVAAPSVFIFPPSDEQLKSGTASVVCLLNNFYPREAKVQWKVDNALQSGNSQESVTEQDSKDSTYSLSSTLTLSKADYEKHKVYACEVTHQGLSSPVTKSFNRGEC
notes: mouse variable regions on human IgG1/kappa constant regions; also called V4; V4pr
B2: V4-C26 hIgG4 (antibody)
heavy: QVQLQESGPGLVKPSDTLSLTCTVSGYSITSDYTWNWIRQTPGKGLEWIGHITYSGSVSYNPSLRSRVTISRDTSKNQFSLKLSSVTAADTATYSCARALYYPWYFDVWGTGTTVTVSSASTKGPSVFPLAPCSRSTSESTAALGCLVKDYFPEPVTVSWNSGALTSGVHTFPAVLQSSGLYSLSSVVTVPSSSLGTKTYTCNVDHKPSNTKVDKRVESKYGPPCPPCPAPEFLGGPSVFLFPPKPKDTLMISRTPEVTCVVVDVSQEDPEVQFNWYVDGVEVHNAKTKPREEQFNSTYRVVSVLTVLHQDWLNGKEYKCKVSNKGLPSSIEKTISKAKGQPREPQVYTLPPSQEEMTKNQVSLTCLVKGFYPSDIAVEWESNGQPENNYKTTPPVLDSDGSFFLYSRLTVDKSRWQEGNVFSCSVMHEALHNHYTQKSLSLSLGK
light: EIVLTQSPATLSLSPGERATLSCRASSSVGYIHWYQQKPGQAPRPIIYTTSNRATGIPARFSGSGSGTDNTLTISSLEPEDSAVYYCQQWSSYPPITFGGGTKLEVKRTVAAPSVFIFPPSDEQLKSGTASVVCLLNNFYPREAKVQWKVDNALQSGNSQESVTEQDSKDSTYSLSSTLTLSKADYEKHKVYACEVTHQGLSSPVTKSFNRGEC
notes: human IgG4 (S228P)/kappa format; also called HMBD-002; HMBD-002-V4C26

Tests used:
[1] = target: T5, recombinant human VISTA (His-tagged) (human, UniProt Q9H7M9 33-194); assay: ELISA, target protein coated, A450 against log M of antibody
T5 construct: bought soluble protein (Sino Biological); also called hVISTA; human VISTA polypeptide

human B7H3 = target: T1, human B7H3; assay: as above
human CTLA4 = human CTLA4 (human, UniProt P16410 36-162); assay: as above
[2] = target: T6, recombinant cynomolgus macaque VISTA (His-tagged) (cynomolgus macaque, UniProt A0A7N9IB00 33-194); assay: BLI (Octet QK384), His-tagged VISTA on anti-Penta-HIS tips, antibody as analyte
T6 construct: also called cyno VISTA; cynomolgus monkey VISTA

[3] = target: T2, recombinant mouse VISTA (His-tagged); assay: as above
[4] = target: T5, recombinant human VISTA (His-tagged); assay: antigen-binding ELISA; HMBD-002 in F1, day 20 at 40°C
[5] = target: T5, recombinant human VISTA (His-tagged); assay: antigen-binding ELISA; HMBD-002 in F2, day 20 at 40°C
[6] = target: T5, recombinant human VISTA (His-tagged); assay: antigen-binding ELISA; HMBD-002 in F5, day 10 at 40°C
[7] = target: T5, recombinant human VISTA (His-tagged); assay: antigen-binding ELISA; HMBD-002 in F9, day 20 at 40°C
[8] = target: T7, human VISTA expressed on cells (human, UniProt Q9H7M9 33-311); assay: flow cytometry, HEK293T cells expressing the VISTA ortholog
T7 construct: also called HEK293 VISTA O/E; HEK293T or HEK293-6E cells overexpressing human VISTA

[9] = target: T3, mouse VISTA expressed on cells; assay: as above
[10] = target: T4, rat VISTA expressed on cells; assay: as above
[11] = target: T8, cynomolgus macaque VISTA expressed on cells (cynomolgus macaque, UniProt A0A7N9IB00 33-311); assay: flow cytometry, endogenous VISTA on CD11b+ myeloid cells of NHP PBMCs
T8 construct: whole, on cells; also called NHP VISTA on HEK293T cells; VISTA on NHP CD11b+ myeloid cells

[12] = target: T5, recombinant human VISTA (His-tagged); assay: ELISA, plate coated with human B7H5 (VISTA), antibody titrated
[13] = target: T5, recombinant human VISTA (His-tagged); assay: SPR (Biacore), VISTA-HIS captured, antibody as analyte, 1:1 model; SPR (Biacore), human VISTA
human C1q protein = human C1q protein (human, UniProt P02745 23-245; P02746 28-253; P02747 29-245); assay: ELISA, plate coated with human C1q protein, detection with HRP anti-human Fc antibody
Chain of human C1q protein (P02745 23-245 limits assumed, chain 1 of 3): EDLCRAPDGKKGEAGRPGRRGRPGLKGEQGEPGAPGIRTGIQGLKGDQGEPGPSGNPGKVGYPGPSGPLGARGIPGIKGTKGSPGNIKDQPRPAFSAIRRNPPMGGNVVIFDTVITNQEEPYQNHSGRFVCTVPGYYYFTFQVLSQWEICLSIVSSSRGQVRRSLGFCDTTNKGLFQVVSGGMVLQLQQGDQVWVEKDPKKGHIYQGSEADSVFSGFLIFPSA
Chain of human C1q protein (P02746 28-253 limits assumed, chain 2 of 3): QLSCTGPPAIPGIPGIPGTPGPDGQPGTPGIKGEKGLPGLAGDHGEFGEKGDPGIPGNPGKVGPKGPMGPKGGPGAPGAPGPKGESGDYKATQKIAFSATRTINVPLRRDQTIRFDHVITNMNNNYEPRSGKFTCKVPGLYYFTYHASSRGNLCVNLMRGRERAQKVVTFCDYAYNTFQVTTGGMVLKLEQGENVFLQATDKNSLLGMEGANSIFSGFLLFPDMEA
Chain of human C1q protein (P02747 29-245 limits assumed, chain 3 of 3): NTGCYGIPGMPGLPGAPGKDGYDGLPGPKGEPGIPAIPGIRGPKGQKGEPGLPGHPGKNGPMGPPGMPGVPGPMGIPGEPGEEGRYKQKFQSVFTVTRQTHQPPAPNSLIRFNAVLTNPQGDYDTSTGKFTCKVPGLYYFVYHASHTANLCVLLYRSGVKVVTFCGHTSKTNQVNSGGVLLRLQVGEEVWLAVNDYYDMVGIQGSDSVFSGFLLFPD

Chain of human CTLA4 (P16410 36-162 limits assumed): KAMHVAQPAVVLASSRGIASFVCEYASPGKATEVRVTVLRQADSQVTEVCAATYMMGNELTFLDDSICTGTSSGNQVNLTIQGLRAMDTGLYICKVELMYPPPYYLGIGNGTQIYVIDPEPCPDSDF

Row | Binder | EC50 (read off the curve) [1] [nM] | binding result (human B7H3) | binding result (human CTLA4) | Kd [2] [nM] | Kd [3] [nM] | EC50 [4] [nM] | EC50 [5] [nM] | EC50 [6] [nM] | EC50 [7] [nM] | EC50 [8] [nM] | EC50 [9] [nM] | EC50 [10] [nM] | EC50 [11] [nM] | EC50 (read off the curve) [12] [nM] | Kd [13] [nM] | binding result (human C1q protein)
1 | B1 | ~0.01 | no binding (tested: about 10^-7.5 M (log M axis)) | no binding (tested: about 10^-7.5 M (log M axis)) | < 0.001 | 113 |  |  |  |  |  |  |  |  |  |  | 
2 | B2 |  |  |  |  |  | 0.0172 | 0.0197 | 0.0341 | 0.0223 | 3.74 | 8.94 | 4.13 | 67.6 | ~0.01 | 0.407 | no binding (tested: about 2e-7 M)
